No end group written: not given here. *: point of attachment. 6FAM = O=C1OC2(c3ccc(O)cc3Oc3cc(O)ccc32)c2cc(C(=O)*)ccc21
B1: 3BP-1 probe peptide, labeled with 6-carboxyfluorescein (peptide)
chain: 6FAM-APTMPPPLPP
B2: unlabeled p41 peptide (peptide)
chain: APSYSPPPPP
B3: p40 probe peptide, labeled with 6-carboxyfluorescein (peptide)
chain: 6FAM-APTYPPPLPP

target: recombinant purified ABL SH3 domain alone (human)
Sequence (chain, as listed by the source): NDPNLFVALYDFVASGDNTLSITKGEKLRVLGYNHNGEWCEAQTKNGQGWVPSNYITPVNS

Point of comparison: B2, Kd 1500 nM. Against it:
- B1 — 23-fold higher, 34000 nM
- B3 — 3.8-fold lower, 400 nM

From PMC4519180 (2015)
